Results reported in patent US20070185028A1, “Compositions and methods for treatment of protein misfolding and protein aggregation diseases” (priority 2004, published 2007).
Values joined by “and” are separate entries in the source; they are usually repeats but may differ in a detail not shown here. Equal entries are not always repeated.

How the values were obtained:
Type in all cases: biochemical
Aβ1-42 = target: T1, Aβ1-42 (Homo sapiens, UniProt P05067); test: Aβ1-42 fibril formation ThT fluorescence assay; settings: for decrease in ThT fluorescence of Aβ1-42: 6 μM inhibitor, 30 μM Aβ1-42, 37° C., 48 hrs; for inhibition of Aβ fibrillation: peptide to substrate concentration of 1:5
T1 construct: Aβ1-42 (American Peptide); purchased American Peptide
Procedure: The effect of five synthesized αB crystallin peptides STSLSPFYLRPPSFLRAP (ST), DRFSVNLDVKHFS (DR), HGKHEERQDE (HG), LTITSSLSSDGV (LT), and ERTIPITRE (ER) on Aβ1-42 fibrillation was measured using the ThT fluorescence assay (FIG. 1). The formation and inhibition of Aβ1-42 fibrils was qualitatively verified by fluorescence and bright-field microscopy. The concentration and stoichometry of the peptides was varied relative to Aβ1-42 to establish a concentration curve. In addition, the effect of two known inhibitors of Aβ1-42 fibrillation (APS and NAP) and a control neuropeptide (AT1) with no fibril inhibition activity was measured and compared to the effect of the αB crystallin peptides on Aβ1-42 fibrillation. The ThT fluorescence of 30 μM Aβ1-42 alone incubated at 37° C. for 48 hrs increased from ˜350,000 to ˜450,000 RFU. […] In contrast, 6 μM DR, LT, and […] had no effect on Aβ1-42 fibril formation. […] Increasing the concentration of the DR peptide to 30 μM decreased the ThT fluorescence by approximately 50%. […] However, when the concentrations of the LT and ER peptides were increased to 150 μM, a 60-100% decrease in ThT fluorescence was measured. […] The negative control peptide AT1 had no effect on Aβ1-42 fibril formation even at a concentration as high as 300 μM.
The Thioflavin T (ThT) fluorescence of Aβ1-42 in the presence of varying concentrations of αB crystallin peptides and controls was measured. […] Addition of 6 μM DR, LT, and ER had no effect on the ThT fluorescence of Aβ1-42. When the concentration of the peptides was increased to 30 μM (1:1::peptide:Aβ1-42), the αB crystallin peptides ST, DR, HG decreased the ThT fluorescence by 50-100%. At the same concentrations, APS and NAP decreased the ThT fluorescence by 30-100%. When the concentration of the peptides was increased further to 150 μM ([…]), four of the five αB crystallin peptides DR, HG, LT, and ER decreased the ThT fluorescence by 58-100%. At the same concentrations, APS and NAP decreased the fluorescence by 28-100%. […] The formation and inhibition of Aβ fibrils was verified microscopically.
Thioflavin T (ThT) Assays. The effect of the five αB crystallin peptides (ST, DR, HG, LT, and ER) on Aβ1-42 fibril formation was measured using the ThT fluorescence assay (44-47) and compared with two known inhibitors of Aβ1-42 fibril formation (Tramiprosate and NAP)(34, 36) and a negative control neuropeptide Angiotensin 1 (AT1). Thioflavin T is a fluorescent dye that has a high affinity for amyloid fibrils and becomes fluorescent (excitation λ=450 nm, emission λ=486 nm) when bound to fibrils. For the Aβ1-42 assays, peptides and APS were dissolved to 2 mM in 0.25% DMSO and diluted accordingly, while Aβ1-42 was dissolved in 20 mM Tris-Cl, pH 7.40, and 100 mM NaCl. For the 5:1::inhibitor:Aβ1-42 assay, 10 μL of 450 μM peptide or APS was mixed with 10 μL of 90 μM Aβ1-42), 7 μL 20 mM Tris-Cl, 100 mM NaCl, pH 7.4 and 3 μL of 1 mM ThT. For the 1:1::inhibitor:Aβ1-42 assay, 10 μL of 90 μM peptide or APS was mixed with 10 μL of 90 μM Aβ(1-42), 7 μL 20 mM Tris-Cl, 100 mM NaCl, pH 7.4 and 3 μL of 1 mM ThT. For the 1:5::inhibitor:Aβ1-42 assay, 10 μL of 18 μM peptide or APS was mixed with 10 μL of 90 μM Aβ(1-42), 7 μL 20 mM Tris-Cl, 100 mM NaCl, pH 7.4 and 3 μL of 1 mM ThT. ThT fluorescence in relative fluorescence units (RFU) was measured using a Perkin Elmer Victor^3 V plate reader. Assays were performed in 384-well fluorescence plates in duplicates or triplicates. Samples were incubated at 37° C. for a total of 48 hours. ThT fluorescence was measured at 0, 24, and 48 hours. The effect of the peptides and APS was calculated as percentage fibril formation relative to Aβ1-42 alone (100%) at the end of 48 hours.

transthyretin (TTR) = target: T2, transthyretin (TTR) (Homo sapiens, UniProt P02766); test: Transthyretin fibrillation ThT assay; settings: for decrease in ThT fluorescence of TTR: 3.2 μM, 16 μM TTR, 37° C.
T2 construct: purchased Sigma-Aldrich
Procedure: The effect of the five αB crystallin peptides ST, DR, HG, LT, and ER on TTR fibrillation was measured using the ThT fluorescence assay (FIG. 26). The formation and inhibition of TTR fibrils was qualitatively verified by fluorescence and bright-field microscopy. The concentration of the peptides was varied relative to TTR to establish a concentration curve. In addition, the effect of a control neuropeptide (AT1) with no TTR fibril inhibition activity was measured and compared to the effect of the αB crystallin peptides on TTR fibril formation. The ThT fluorescence of 16 μM TTR alone incubated at 37° C. for 4 hrs, increased from ˜15,000 to ˜45,000 RFU. Addition of 3.2 μM αB crystallin peptides, ST, DR, LT, and HG decreased the ThT fluorescence of TTR by 15-70%. In contrast, 3.2 μM ER had no effect on TTR fibril formation. Increasing the concentration of the ER peptide to 16 μM decreased the ThT fluorescence of TTR by 60%. The negative control peptide AT1 had no effect on TTR fibrillation even at a concentration as high as 160 μM. All five αB crystallin peptides inhibited TTR fibrillation at sub-stoichometric and stoichometric concentrations (3.2 μM and 16 μM).
The Thioflavin T (ThT) fluorescence of TTR in the presence of varying concentrations of αB crystallin peptides and controls was measured. […] When the concentration of the peptides was increased to 16 μM (1:1::peptide:TTR), the αB crystallin peptides ST, DR, HG, LT and ER decreased the ThT fluorescence by 8-72%. When the concentration of the peptides was increased further to 80 μM ([…]), all of the five αB crystallin peptides ST, DR, HG, LT, and ER decreased the ThT fluorescence by 40-70%. […] The formation and inhibition of TTR fibrils was verified microscopically.
Transthyretin fibrillation ThT assays were performed as described previously. Hurshman et al., Biochemistry 43:7365-81, 2004; O'Nuallain and Wetzel, Proc Natl Acad Sci USA 99:1485-90, 2002. Peptides were dissolved to 2 mM in 0.25% DMSO and diluted accordingly, while TTR was dissolved in 200 mM KCl, 2 mM EDTA, 5 mM PBS, 200 mM sodium acetate, pH 4.4. For the 5::peptide:TTR assay, 10 μL of 160 μM peptide was mixed with 10 μL of 32 μM TTR, and 1 μL of 1 mM ThT. For the 1:1::peptide:TTR assay, 10 μL of 32 μM peptide was mixed with 10 μL of 32 μM TTR and 1 μL of 1 mM ThT. For the 1:5::peptide:TTR assay, 10 μL of 6.4 μM peptide was mixed with 10 μL of 32 μM TTR and 1 μL of 1 mM ThT. ThT fluorescence was measured using a Perkin Elmer Victor^3 V plate reader. Assays were performed in 384-well fluorescence plates in duplicates or triplicates. Samples were incubated at 37° C. ThT fluorescence was measured continuously for 150 minutes. The effect of the peptides and APS was calculated as percentage fibril formation relative to TTR alone (100%) at the end of 150 minutes.

Aβ = Aβ (Homo sapiens, UniProt P05067); test: Aβ Thioflavin T fluorescence (fibrillization, 50° C., 72 hours); settings: Thioflavin T; 1:10 Aβ:peptide; 50° C., 72 hours
Procedure: Aβ Thioflaviin T fluorescence. Aβ fibrils were grown in the presence and absence of αB crystallin and peptides in conditions similar to that previously described for the presence of αB crystallin. Bakthisaran et al., Biochem J, 2005. Peptides were dissolved to 9.1 mM in trifluorethanol (TFE) and diluted to 0.91 mM stock solutions in 50 mM PBS, 100 mM NaCl, pH 7.4. 3.5 mg of Thioflavin T was dissolved in 100 μl of 50 mM Glycine pH 8.5. A stock solution of 1 mg/ml (0.22 mM) Aβ was prepared. 20 μl Aβ, 50 μl chaperone, 2 μl Thioflavin T was mixed with 28 μl 50 mM PBS, 100 mM NaCl, pH 7.4. Fluorescence was read using a Beckman Coultier DTX 880 multimode detector. Samples were heated at 50° C. for 72 hours and fluorescence was read again.
(§1) The fibrillization of Aβ was measured as fluorescence of the fluorescent dye Thioflavin T from solutions containing 1:10 monomeric molar ratio of Aβ:peptide. In the absence of Aβ fibrils, Thioflavin T had little or no fluorescence. The fluorescence of the Thioflavin T bound to Aβ fibrils in the absence of any other molecule after 72 hrs was set to 100%. […] Fibril formation=ΔfluorescenceAβ (with chaperone)*100/ΔfluorescenceAβ (without chaperone).

γD crystallin = target: T3, γD crystallin (Homo sapiens, UniProt P07320); test: γD crystallin Thioflavin T fluorescence (fibrillization); settings: 1:1 γD crystallin:peptide
T3 sequence (P07320 2-174): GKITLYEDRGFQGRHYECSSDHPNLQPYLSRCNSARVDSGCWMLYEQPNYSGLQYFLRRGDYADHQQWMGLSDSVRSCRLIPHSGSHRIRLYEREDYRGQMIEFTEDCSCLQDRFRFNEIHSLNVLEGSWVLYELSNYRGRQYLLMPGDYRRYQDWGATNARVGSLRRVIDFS
Procedure: γD crystallin Thioflaviin T fluorescence. γD crystallin fibrils were formed in a similar way to that of γ crystalline. Meehan et al., J Biol Chem 279: 3413-3419, 2004. Peptides were dissolved to 9.1 mM in TFE and diluted to 0.91 mM stock solutions in 10% TFE, pH 2.0. 3.5 mg of Thioflavin T was dissolved in 100 μl of 50 mM Glycine pH 8.5. A stock solution of 1 mg/ml (0.22 mM) Aβ was prepared. 20 μl Aβ, 5 μl chaperone, 2 μl Thioflavin T was mixed with 73 μl 10% TFE, pH 2.0. Fluorescence was read using a Beckman Coultier DTX 880 multimode detector. Samples were heated at 50° C. for 72 hours and fluorescence was read again.
as §1, with “γD crystallin” for “Aβ”, “1:1” for “1:10”, “γD crystallin:peptide.” for “Aβ:peptide.”, “fibrils” for “Aβ fibrils,”, “formation=ΔfluorescenceγD crystallin” for “formation=ΔfluorescenceAβ”, “chaperone)*100/ΔfluorescenceγD crystallin” for “chaperone)*100/ΔfluorescenceAβ”

Which “decrease in ThT fluorescence of Aβ1-42” value (Aβ1-42) does the source give for NCCCS(=O)(=O)O [APS, 3-aminopropanesulfonic acid, reference compound] here?
The value was ~40% and 38%.

And the “inhibition of Aβ fibrillation” value (Aβ1-42)?
Its value is about 38%.

And the “decrease in ThT fluorescence of TTR” value (transthyretin (TTR))?
The value was “did not have any effect”.

How did the “inhibition of TTR fibrils, HG derived peptides” value (transthyretin (TTR); 1:1 ratio) turn out when HEER was run?
Its value is about 100%.

What does the source list for NAPVSIPQ [reference compound]?
decrease in ThT fluorescence of Aβ1-42 (Aβ1-42): ~40% and 38%; inhibition of Aβ fibrillation (Aβ1-42): ~38%; decrease in ThT fluorescence of TTR (transthyretin (TTR)): did not have any effect

Which results are given for “αB crystallin: wild type recombinant human αB crystallin, small heat shock protein and molecular chaperone”?
Δfluorescence (Aβ) (Aβ): 318,471,040; effect on the fibrillization of γD crystallin (ranking) (γD crystallin; 72 hrs): weakest effect; Δfluorescence (γD crystallin) (γD crystallin; Thioflavin T, 50° C., 72 hours): 1,079,141,056
